Test results taken from publication PMC12500691.

Target: Spike
Assay: SPR

Sequence of human angiotensin converting enzyme 2 (Q9BYF1 20-611): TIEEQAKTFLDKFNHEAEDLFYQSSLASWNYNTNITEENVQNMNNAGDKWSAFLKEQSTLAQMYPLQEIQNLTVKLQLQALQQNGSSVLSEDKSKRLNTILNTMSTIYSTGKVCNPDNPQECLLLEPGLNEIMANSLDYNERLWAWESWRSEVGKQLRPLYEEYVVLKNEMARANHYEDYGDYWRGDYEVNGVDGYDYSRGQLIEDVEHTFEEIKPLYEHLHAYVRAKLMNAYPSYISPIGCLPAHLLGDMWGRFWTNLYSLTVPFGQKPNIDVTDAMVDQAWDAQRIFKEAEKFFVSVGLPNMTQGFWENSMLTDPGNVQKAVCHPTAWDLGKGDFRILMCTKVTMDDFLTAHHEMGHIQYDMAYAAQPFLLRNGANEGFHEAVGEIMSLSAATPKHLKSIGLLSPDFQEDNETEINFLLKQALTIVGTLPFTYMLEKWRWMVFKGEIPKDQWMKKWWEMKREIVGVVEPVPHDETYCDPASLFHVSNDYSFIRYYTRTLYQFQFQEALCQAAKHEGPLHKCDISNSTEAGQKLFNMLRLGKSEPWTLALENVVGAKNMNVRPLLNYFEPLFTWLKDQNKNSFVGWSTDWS

human angiotensin converting enzyme 2 (from UniProt Q9BYF1-1 20-611) (receptor)
Kd: 370 nM
